The values below are quoted from earlier work in article PMC6457457.

The target of the data set is LC8 (Homo sapiens) (UniProt P63167).
Chain of UniProt P63167 (P63167 whole entry): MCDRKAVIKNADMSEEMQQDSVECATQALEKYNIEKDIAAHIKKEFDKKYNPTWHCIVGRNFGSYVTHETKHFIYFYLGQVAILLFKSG

Regarding VP35 (from UniProt Q6V1Q9), the Kd – broadly, a measure of binding affinity in units of concentration – was 82.4 nM.
